The record followed here is patent US20190062414A1 (PHILOGEN S P A, published 2019).

The target of one experiment is murine MMP3 (murine, UniProt P28862 100-272). Nature of the experiment: Biacore (SPR), scFv; set-up not described. Background: SPR reads the build-up and loss of mass on a sensor chip optically.
The next experiment has as its target human MMP3 (human, UniProt P08254 100-272). Nature of the experiment: Biacore (SPR), scFv; set-up not described.
For experiment [1], the target named is T1, D domain of human Tenascin-C (human, UniProt P24821 1622-1711, limits assumed).
T1 construct: domain: D domain; Coated on a CM5 chip; also called domain D of human Tenascin-C; human tenascin-C D domain
T1 sequence (looked up): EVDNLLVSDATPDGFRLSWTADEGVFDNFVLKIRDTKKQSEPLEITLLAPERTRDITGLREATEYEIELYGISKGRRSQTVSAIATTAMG
Put plainly: Biacore (SPR), scFv over CM5 chip coated with human tenascin-C D domain. Here is the method: CPR01 was analysed for antigen binding by Biacore using a CM5 chip coated with the human tenascin-C D domain. The flow rate for the Biacore analysis was set at 10 μL/min.

The target of experiment [2] is T2, BCD domains of murine tenascin-C (murine, UniProt Q80YX1 1349-1620, limits assumed).
T2 construct: domain: BCD domains; Coated on a CM5 chip; also called domain BCD of murine Tenascin-C
T2 sequence (looked up): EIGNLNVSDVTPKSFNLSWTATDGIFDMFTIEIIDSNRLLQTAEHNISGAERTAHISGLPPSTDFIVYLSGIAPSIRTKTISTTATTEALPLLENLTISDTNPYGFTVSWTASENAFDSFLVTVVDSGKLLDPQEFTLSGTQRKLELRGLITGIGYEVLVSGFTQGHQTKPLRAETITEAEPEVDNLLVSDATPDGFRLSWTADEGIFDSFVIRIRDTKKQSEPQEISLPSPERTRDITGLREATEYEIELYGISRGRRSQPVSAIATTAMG
Put plainly: Biacore (SPR), scFv on BCD domains of murine tenascin-C.

Chain of murine MMP3 (P28862 100-272): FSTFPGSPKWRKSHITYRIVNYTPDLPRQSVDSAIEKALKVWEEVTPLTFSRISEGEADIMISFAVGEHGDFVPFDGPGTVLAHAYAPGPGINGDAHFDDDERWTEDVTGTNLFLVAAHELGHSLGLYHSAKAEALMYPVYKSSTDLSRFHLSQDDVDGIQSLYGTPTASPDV
Chain of human MMP3 (P08254 100-272): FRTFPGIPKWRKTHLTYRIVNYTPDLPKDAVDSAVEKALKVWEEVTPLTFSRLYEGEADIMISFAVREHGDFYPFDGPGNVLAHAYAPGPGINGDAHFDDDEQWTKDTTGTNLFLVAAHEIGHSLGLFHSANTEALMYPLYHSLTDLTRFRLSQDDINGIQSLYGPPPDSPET

B1: scFv(CH01) (scFv)
scFv: EVQLLESGGGLVQPGGSLRLSCAASGFTFSPYAMSWVRQAPGKGLEWVSAITGQGGVTYYADSVKGRFTISRDNSKNTLYLQMNSLRAEDTAVYYCAKISSFHFDYWGQGTLVTVSSGGGGSGGGGSGGGGEIVLTQSPGTLSLSPGERATLSCRASQSVSSHHLAWYQQKPGQAPRLLIYDASSRATGIPDRFSGSGSGTDFTLTISRLEPEDFAVYYCQQPRGAPTTFGQGTKVEIK
notes: First disclosed in PCT/EP2015/067309; also called anti-MMP3 antibody CH01
Turning to B1, in the experiment with murine MMP3, the Kd (as a rule, the concentration at which binding is half-saturated) worked out at 29 nM; the off-rate constant (koff) (as a rule, a measure of how fast the partners let go of each other) came out at 0.0025 s⁻¹; the kon (commonly the rate constant with which the complex forms) came to 80000 M⁻¹ s⁻¹. In the experiment with human MMP3, binding was put at a Kd of 28 nM, the koff was 0.0047 s⁻¹ and the kon turned out to be 170000 M⁻¹ s⁻¹.

B2: scFv(CPR01) (scFv)
scFv: EVQLLESGGGLVQPGGSLRLSCAASGFTFSSYAMSWVRQAPGKGLEWVSAIKARGGLTYYADSVKGRFTISRDNSKNTLYLQMNSLRAEDTAVYYCAKGGAPFDYWGQGTLVTVSSGGGGSGGGGSGGGGSSELTQDPAVSVALGQTVRITCQGDSLRSYYASWYQQKPGQAPVLVIYGKNNRPSGIPDRFSGSSSGNTASLTITGAQAEDEADYYCNSSPLNRLAVVFGGGTKLTVLG
notes: Expressed in CHO.S cells as scFv
For the molecule B2, in experiment [1], binding was characterised by a dissociation constant (Kd) of 70 nM, the off-rate (koff) turned out to be 0.011 s⁻¹ and the on-rate (kon) came out at 151000 M⁻¹ s⁻¹. Moreover, in experiment [2], the Kd was 29 nM, the koff came out at 0.007 s⁻¹ and the kon amounted to 240000 M⁻¹ s⁻¹.
